Paper PMC2720631

Target: TRIP8b (mouse (endogenous in forebrain cortex)) (UniProt Q8C437)
Assay: co-IP

Chain of UniProt Q8C437 (Q8C437 whole entry): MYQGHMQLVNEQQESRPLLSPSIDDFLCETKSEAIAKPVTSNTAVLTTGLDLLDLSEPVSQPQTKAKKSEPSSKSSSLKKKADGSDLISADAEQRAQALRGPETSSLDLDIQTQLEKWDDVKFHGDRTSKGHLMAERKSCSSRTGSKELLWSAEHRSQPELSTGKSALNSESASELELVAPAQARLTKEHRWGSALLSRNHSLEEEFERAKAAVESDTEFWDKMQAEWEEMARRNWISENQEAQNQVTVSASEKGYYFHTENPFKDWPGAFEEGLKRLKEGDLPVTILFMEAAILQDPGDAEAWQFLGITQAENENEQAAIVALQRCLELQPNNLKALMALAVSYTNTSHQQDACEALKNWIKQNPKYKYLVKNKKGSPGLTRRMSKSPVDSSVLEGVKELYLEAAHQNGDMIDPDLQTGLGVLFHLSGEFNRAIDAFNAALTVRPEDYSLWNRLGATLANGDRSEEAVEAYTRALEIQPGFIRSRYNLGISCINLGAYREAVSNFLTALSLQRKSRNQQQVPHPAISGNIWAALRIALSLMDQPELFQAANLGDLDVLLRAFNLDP
Chain of HCN1 (O88704 whole entry): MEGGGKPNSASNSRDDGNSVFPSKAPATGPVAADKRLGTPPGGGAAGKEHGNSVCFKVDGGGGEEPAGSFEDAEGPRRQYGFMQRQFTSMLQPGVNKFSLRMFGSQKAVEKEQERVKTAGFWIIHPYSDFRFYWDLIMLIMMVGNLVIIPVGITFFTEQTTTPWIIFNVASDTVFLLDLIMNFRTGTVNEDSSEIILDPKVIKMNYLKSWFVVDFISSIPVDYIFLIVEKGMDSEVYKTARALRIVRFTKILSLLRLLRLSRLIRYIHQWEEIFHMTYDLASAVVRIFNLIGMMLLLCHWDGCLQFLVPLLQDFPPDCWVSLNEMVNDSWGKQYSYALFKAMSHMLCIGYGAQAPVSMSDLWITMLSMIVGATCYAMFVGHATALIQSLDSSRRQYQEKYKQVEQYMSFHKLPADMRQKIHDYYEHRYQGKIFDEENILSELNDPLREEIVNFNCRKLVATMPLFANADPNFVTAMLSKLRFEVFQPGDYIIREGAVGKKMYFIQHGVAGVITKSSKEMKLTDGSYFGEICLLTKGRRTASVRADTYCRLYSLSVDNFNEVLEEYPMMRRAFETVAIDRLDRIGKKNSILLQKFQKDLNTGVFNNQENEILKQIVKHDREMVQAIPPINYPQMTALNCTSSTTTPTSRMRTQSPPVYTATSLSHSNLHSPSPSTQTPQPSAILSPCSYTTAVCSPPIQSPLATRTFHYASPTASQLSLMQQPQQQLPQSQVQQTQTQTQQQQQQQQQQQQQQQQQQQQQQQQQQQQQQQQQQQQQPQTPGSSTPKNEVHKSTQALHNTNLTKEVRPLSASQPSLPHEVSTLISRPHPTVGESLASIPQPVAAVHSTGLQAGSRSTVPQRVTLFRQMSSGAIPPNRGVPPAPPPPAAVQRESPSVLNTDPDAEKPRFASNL

- percent of HCN1 co-immunoprecipitated: < 50%
Substance: HCN1 (from UniProt O88704 1-910) (natural protein)
